Measurements taken from US8629241B2, “Alpha helical mimics, their uses and methods for their production” (The University of Queensland, priority 2004, dated 2014).
Like-named read-outs stand apart in the source and are kept apart here. Where a SMILES comes first, the peptide text is derived from it. Bridges are numbered along the chain shown (N, C = ends). [ ]: non-standard residue; d: D form. Orn = NCCC[C@H](N)C(=O)O

Assay type: physicochemical
Settings: for [θ]207: molar elipticity at 207 nm; for percentage helicities: equation 2b with k˜4, assuming 8 has 100% helicity
Description: Circular Dichroism (CD) was performed on peptides having SEQ ID NOs: 8 to 14 and 18 to 31, using methods described above. The molar elipticities at 222 nm, 208 nm and 190 nm, ratios of elipticities at 222 nm/208 nm and relative helicity are shown in Tables 6 and 7.
Assuming that mean alpha helix content (fH) is linearly related to elipticity at 222 nm, or in our case 215 nm ([θ]obs215), then the equation for calculating helix content is: fH=([θ]obs215−[θ]C)/([θ]∞215−[θ]C) (1) Luo and Baldwin^22 determined that the random coil ([θ]C) and infinite alpha helix ([θ]∞222) molar elipticities are temperature dependent based on the equations: [θ]C=2220−53T (2a) [θ]∞215=(−44000+250T)(1−k/Np) (2b) where T is temperature in degrees Celsius, Np is the number of peptide units, and k is a finite length correction.
CD was performed on peptides having one [SEQ ID NO: 8] or more than one modular macrocycle [SEQ ID NOs: 46 and 47], as compared with corresponding linear peptides, Ac[KARAD]n—NH2 where n=1 [SEQ ID NO: 14], n=2 [SEQ ID NO: 54] and n=3 [SEQ ID NO: 55]. The molar elipticities at 222 nm, 208 nm and 190 nm, ratios of elipticities at 222 nm/208 nm and percentage helicity are shown in Table 8.
CD experiments were performed on a Jasco Model J-710 spectropolarimeter which was routinely calibrated with (1S)-(+)-10-camphorsulfonic acid. Temperature control was achieved using a Neslab RTE-111 circulating water bath. Spectra were recorded in a 0.1 cm Jasco cell between 310-185 nm at 50 nm/min with a band width of 1.0 nm, response time of 2 sec, resolution step width of 0.1 nm and sensitivity of 20, 50 or 100 mdeg. Each spectrum represents the average of 5 scans with smoothing to reduce noise. Peptide samples for CD spectroscopy were dissolved in distilled water (˜1 mg/mL). Each stock solution was diluted to a final concentration of 50 μM in 10 mM sodium phosphate buffer (pH7.4), with or without additives (2,2,2-trifluoroethanol (TFE) or guanidine.HCl). Guanidine.HCl denaturation experiments were performed according to Creighton^105.
1D ^1H NMR spectra were then recorded with presaturation and a relaxation delay (d1) of 30 seconds to allow for full relaxation of peptide and DSS^1H signals to facilitate accurate integration of proton signals with S/N>250:1. This method provides reproducible concentrations within ±2%.
CD data in ellipticity was converted to mean peptide ellipticity using the equation: [θ]=θ/(10×C×Np×1) where θ is the ellipticity in millidegrees, C is the peptide molar concentration (M), 1 is the cell path length (cm), and Np is the number of peptide units (ie. pentapeptides […], 10 & 11 Np=5, 12 Np=4.)
Relative helicities were employed to allow scaling of compounds by dividing the [θ]obs215(8)/[θ]obs215(x) for pentapeptides, and [θ]obs215(24)/[θ]obs215(x) for hexapeptides.

[1] = Table 8, one or more cyclic pentapeptide modules versus linear peptides
[2] = [θ]215 relative to SEQ ID NO: 8, 10 mM phosphate buffer, pH 7.4, 25° C
[3] = molar elipticity at 190 nm, 10 mM phosphate buffer, pH 7.4, 25° C
[4] = 10 mM phosphate buffer, pH 7.4, 25° C
[5] = molar elipticity at 215 nm, 10 mM phosphate buffer, pH 7.4, 25° C
[6] = ratio of elipticities, 10 mM phosphate buffer, pH 7.4, 25° C
[7] = cyclic hexapeptides 23-31, 10 mM phosphate buffer pH 7.4 at 25° C
[8] = θ215 relative to SEQ ID NO: 24, 10 mM phosphate buffer pH 7.4 at 25° C

Row | Compound | Relative helicity [2] | [θ]190 [3] | [θ]207 [4] | [θ]215 [5] | θ215/θ207 [6] | Molar ellipticity at 207 nm [7] | [θ]190 [7] | [θ]215 [7] | θ215/θ207 [7] | Relative helicity [8] | other results
1 | CC(=O)N[C@@H](CCCCN)C(=O)N[C@@H](C)C(=O)N[C@@H](CCCNC(=N)N)C(=O)N[C@@H](C)C(=O)N[C@@H](CC(=O)O)C(=O)N[C@@H](CCCCN)C(=O)N[C@@H](C)C(=O)N[C@@H](CCCNC(=N)N)C(=O)N[C@@H](C)C(=O)N[C@@H](CC(=O)O)C(N)=O [SEQ ID NO: 54] (Ac-KARADKARAD-NH2) |  |  |  |  |  |  |  |  |  |  | θ222/θ208 (Table 8): 0.21; [θ]192 [1]: −12237 degcm^2dmol^−1residue^−1; [θ]208 [1]: −8552 degcm^2dmol^−1residue^−1; [θ]222 [1]: −1836 degcm^2dmol^−1residue^−1; % helicity (fH × 100, [θ∞H]222 = −44000, k = 2.6): 3%
2 | Ac-(cyclo-1,5)-[DARAK]-NH2 (Ac-DARAK-NH2; lactam 1-5; SMILES CC(=O)N[C@H]1CC(=O)NCCCC[C@@H](C(N)=O)NC(=O)[C@H](C)NC(=O)[C@H](CCCNC(=N)N)NC(=O)[C@H](C)NC1=O) [SEQ ID NO: 9] | 0.60 | 15600 deg.cm^2.dmol^−1.residue^−1 | −10705 deg.cm^2.dmol^−1.residue^−1 | −7723 deg.cm^2.dmol^−1.residue^−1 | 0.72 |  |  |  |  |  | 
3 | Ac-(cyclo-1,5)-[DARAO]-NH2 (Ac-DARA[Orn]-NH2; lactam 1-5; SMILES CC(=O)N[C@H]1CC(=O)NCCC[C@@H](C(N)=O)NC(=O)[C@H](C)NC(=O)[C@H](CCCNC(=N)N)NC(=O)[C@H](C)NC1=O) [SEQ ID NO: 13] | 0.37 | −6954 deg.cm^2.dmol^−1.residue^−1 | −9748 deg.cm^2.dmol^−1.residue^−1 | −4671 deg.cm^2.dmol^−1.residue^−1 | 0.48 |  |  |  |  |  | 
4 | Ac-(cyclo-1,5)-[EARAK]-NH2 (Ac-EARAK-NH2; lactam 1-5; SMILES CC(=O)N[C@H]1CCC(=O)NCCCC[C@@H](C(N)=O)NC(=O)[C@H](C)NC(=O)[C@H](CCCNC(=N)N)NC(=O)[C@H](C)NC1=O) [SEQ ID NO: 11] | 0.58 | 20735 deg.cm^2.dmol^−1.residue^−1 | −12803 deg.cm^2.dmol^−1.residue^−1 | −7430 deg.cm^2.dmol^−1.residue^−1 | 0.58 |  |  |  |  |  | 
5 | Ac-(cyclo-1,5)-[EARAO]-NH2 (Ac-EARA[Orn]-NH2; lactam 1-5; SMILES CC(=O)N[C@H]1CCC(=O)NCCC[C@@H](C(N)=O)NC(=O)[C@H](C)NC(=O)[C@H](CCCNC(=N)N)NC(=O)[C@H](C)NC1=O) [SEQ ID NO: 19] | 0 | −11256 deg.cm^2.dmol^−1.residue^−1 | −1917 deg.cm^2.dmol^−1.residue^−1 | 2442 deg.cm^2.dmol^−1.residue^−1 | −1.27 |  |  |  |  |  | 
6 | Ac-(cyclo-1,5)-[KARAD]-OH (Ac-KARAD-OH; lactam 1-5; SMILES CC(=O)N[C@H]1CCCCNC(=O)C[C@@H](C(=O)O)NC(=O)[C@H](C)NC(=O)[C@H](CCCNC(=N)N)NC(=O)[C@H](C)NC1=O) [SEQ ID NO: 20] | 0 | −13953 deg.cm^2.dmol^−1.residue^−1 | −5643 deg.cm^2.dmol^−1.residue^−1 | 207 deg.cm^2.dmol^−1.residue^−1 | −0.04 |  |  |  |  |  | Relative helicity ([θ]215 relative to SEQ ID NO: 8, in 0.01 M HCl pH 2): 0.06; [θ]190 (molar elipticity at 190 nm, in 0.01 M HCl pH 2): −2659 deg.cm^2.dmol^−1.residue^−1; [θ]207 (in 0.01 M HCl pH 2): −3195 deg.cm^2.dmol^−1.residue^−1; [θ]215 (molar elipticity at 215 nm, in 0.01 M HCl pH 2): −625 deg.cm^2.dmol^−1.residue^−1; θ215/θ207 (ratio of elipticities, in 0.01 M HCl pH 2): 0.20
7 | Ac-(cyclo-1,5)-[KARAE]-NH2 (Ac-KARAE-NH2; lactam 1-5; SMILES CC(=O)N[C@H]1CCCCNC(=O)CC[C@@H](C(N)=O)NC(=O)[C@H](C)NC(=O)[C@H](CCCNC(=N)N)NC(=O)[C@H](C)NC1=O) [SEQ ID NO: 10] | 0.08 | −10611 deg.cm^2.dmol^−1.residue^−1 | −3393 deg.cm^2.dmol^−1.residue^−1 | −1068 deg.cm^2.dmol^−1.residue^−1 | 0.31 |  |  |  |  |  | 
8 | Ac-(cyclo-1,5)-[OARAD]-NH2 (Ac-[Orn]ARAD-NH2; lactam 1-5; SMILES CC(=O)N[C@H]1CCCNC(=O)C[C@@H](C(N)=O)NC(=O)[C@H](C)NC(=O)[C@H](CCCNC(=N)N)NC(=O)[C@H](C)NC1=O) [SEQ ID NO: 12] | 0 | −4613 deg.cm^2.dmol^−1.residue^−1 | −2077 deg.cm^2.dmol^−1.residue^−1 | 92 deg.cm^2.dmol^−1.residue^−1 | −0.04 |  |  |  |  |  | 
9 | Ac-(cyclo-1,5)-[OARAE]-NH2 (Ac-[Orn]ARAE-NH2; lactam 1-5; SMILES CC(=O)N[C@H]1CCCNC(=O)CC[C@@H](C(N)=O)NC(=O)[C@H](C)NC(=O)[C@H](CCCNC(=N)N)NC(=O)[C@H](C)NC1=O) [SEQ ID NO: 18] | 0 | −16228 deg.cm^2.dmol^−1.residue^−1 | −3368 deg.cm^2.dmol^−1.residue^−1 | 741 deg.cm^2.dmol^−1.residue^−1 | −0.22 |  |  |  |  |  | 
10 | Ac-(cyclo-2,6)-R[KAAAD]-NH2 (Ac-RKAAAD-NH2; lactam 2-6; SMILES CC(=O)N[C@@H](CCCNC(=N)N)C(=O)N[C@H]1CCCCNC(=O)C[C@@H](C(N)=O)NC(=O)[C@H](C)NC(=O)[C@H](C)NC(=O)[C@H](C)NC1=O) [SEQ ID NO: 23] |  |  |  |  |  | −13684 deg.cm^2.dmol^−1.residue^−1 | 39352 deg.cm^2.dmol^−1.residue^−1 | −13537 deg.cm^2.dmol^−1.residue^−1 | 0.99 | 0.91 | percentage helicities: 83%
11 | Ac-(cyclo-2,6)-R[KAFAD]-NH2 (Ac-RKAFAD-NH2; lactam 2-6; SMILES CC(=O)N[C@@H](CCCNC(=N)N)C(=O)N[C@H]1CCCCNC(=O)C[C@@H](C(N)=O)NC(=O)[C@H](C)NC(=O)[C@H](Cc2ccccc2)NC(=O)[C@H](C)NC1=O) [SEQ ID NO: 27] |  |  |  |  |  | −9087 deg.cm^2.dmol^−1.residue^−1 | 27718 deg.cm^2.dmol^−1.residue^−1 | −8644 deg.cm^2.dmol^−1.residue^−1 | 0.95 | 0.76 | percentage helicities: 53%
12 | Ac-(cyclo-2,6)-R[KAGAD]-NH2 (Ac-RKAGAD-NH2; lactam 2-6; SMILES CC(=O)N[C@@H](CCCNC(=N)N)C(=O)N[C@H]1CCCCNC(=O)C[C@@H](C(N)=O)NC(=O)[C@H](C)NC(=O)CNC(=O)[C@H](C)NC1=O) [SEQ ID NO: 28] |  |  |  |  |  | −7678 deg.cm^2.dmol^−1.residue^−1 | 10036 deg.cm^2.dmol^−1.residue^−1 | −4874 deg.cm^2.dmol^−1.residue^−1 | 0.63 | 0.32 | 
13 | Ac-(cyclo-2,6)-R[KALAD]-NH2 (Ac-RKALAD-NH2; lactam 2-6; SMILES CC(=O)N[C@@H](CCCNC(=N)N)C(=O)N[C@H]1CCCCNC(=O)C[C@@H](C(N)=O)NC(=O)[C@H](C)NC(=O)[C@H](CC(C)C)NC(=O)[C@H](C)NC1=O) [SEQ ID NO: 24] |  |  |  |  |  | −15165 deg.cm^2.dmol^−1.residue^−1 | 46621 deg.cm^2.dmol^−1.residue^−1 | −14798 deg.cm^2.dmol^−1.residue^−1 | 0.98 | 1.00 | percentage helicities: 91%
14 | Ac-(cyclo-2,6)-R[KAMAD]-NH2 (Ac-RKAMAD-NH2; lactam 2-6; SMILES CSCC[C@@H]1NC(=O)[C@H](C)NC(=O)[C@@H](NC(=O)[C@H](CCCNC(=N)N)NC(C)=O)CCCCNC(=O)C[C@@H](C(N)=O)NC(=O)[C@H](C)NC1=O) [SEQ ID NO: 25] |  |  |  |  |  | −12296 deg.cm^2.dmol^−1.residue^−1 | 38464 deg.cm^2.dmol^−1.residue^−1 | −11853 deg.cm^2.dmol^−1.residue^−1 | 0.96 | 0.80 | percentage helicities: 73%
